Data on 2 molecules can be found in publication PMC9169858 (Proceedings of the National Academy of Sciences of the …, 2022).

This assay deals with SARS-CoV-2 main protease (M^pro), pGEX4T-1 construct, GST removed by thrombin (SARS-CoV-2, Wuhan-Hu-1 (MN908947.3)). The experiment in a line: BLI. Particulars: both partners purified.

B1: NB1D10 (VHH)
VHH: QVQLQESGGGSVQAGGSLRLSCAVSGYSYCNYDLGWFRQAPGKEREGIATIDSDGNTYYVDSVKGRFTISQDNAKNTVALQMNSLKPEDTAMYYCKVGSIASSVPEVSCPPSAPFGYWGQGTQVTVSS
Take B1: the binding result is reported as “binds”.

B2: NB2E3 (VHH)
VHH: QVQLQESGGGSVQAGGSLRLSCAVSGFIATSCALGWFRQAPGKEREGIATITTDGTTYYVDSVKGRFTISQDNAKNTVALQMNSLKPEDTAMYYCKLCCSGQYCAWGQGTQVTVSS
Regarding B2, the binding result is listed as “binds”.
